Experimental data taken from patent US20250340857A1 (SEISMIC THERAPEUTIC, published 2025).
Positions count from the first letter of the chain named.

B1: FP167 (Fc fusion)
chain 1: DKTHTCPPCPAPEAAGAPSVFLFPPKPKDTLMISRTPEVTCVVVDVSHEDPEVKFNWYVDGVEVHNAKTKPREEQQNSTYRVVSVLTVLHQDWLNGKEYKCKVSNKALKAPIEKTISKAKGQPREPQVYTLPPSRDELTKNQVSLWCLVKGFYPSDIAVEWESNGQPENNYKTTPPVLDSDGSFFLYSKLTVDKSRWQQGNVFSCSVMHEALHNHYTQKSLSLSPGGSSAPGSSAPGSSAPTALGRRKAEDRIKETLWADGVKIDEKDFEHIKSSHEDYFAVEYGKGSGYYDVNKKMDSEDTALCVGAVVTNMFHWWVDQNRENIEKFKKQDPENNGVMKFEGVKEATVDELNEFYRDNRDNYADQSRFFDLIKKHFGNKALNPEELFELYFNGFYYGSSHRYIEDNEPAQNNLFSKVLENNKLLNPERSYGIDGFSNNVINALKSHKVLGLVYTTPLRYRHIISMWGADIDQDGKVKAIYVTDSDDREITFNDNSKRRIGMIRYDVLVDDNGNIRFTGKGATHKEEGAIYAGLYSLSRGDEVWEDYFKKYPEVQENL
chain 2: DKTHTCPPCPAPEAAGAPSVFLFPPKPKDTLMISRTPEVTCVVVDVSHEDPEVKFNWYVDGVEVHNAKTKPREEQQNSTYRVVSVLTVLHQDWLNGKEYKCKVSNKALKAPIEKTISKAKGQPREPQVYTLPPSRDELTKNQVSLSCAVKGFYPSDIAVEWESNGQPENNYKTTPPVLDSDGSFFLVSKLTVDKSRWQQGNVFSCSVMHEALHNHYTQKSLSLSPG
B2: FP168 (Fc fusion)
chain 1: B1 chain 1 with M208L, N214S
chain 2: B1 chain 2 with M208L, N214S
B3: FP179 (Fc fusion)
chain 1: TALGRRKAEDRIKETLWADGVKIDEKDFEHIKSSHEDYFAVEYGKGSGYYDVNKKMDSEDSALCVGAVVTNMFHWWVDQNRENIEKFKKQDPENNGVMKFEGVKEATVDELNEFYRDNRDNYADQSRFFDLIKKHFGNKALNPEELFELYFNGFYYGSSHRYIEDNEPAQNNLFSKVLENNKLLNPERSYGIDGFSNNVINALKSHKVLGLVYTTPLRYRHIISMWGADIDQDGKVKAIYVTDSDDREITFNDNSKRRIGMIRYDVLVDDNGNIRFTGKGATHKEEGAIYAGLYSLSRGDEVWEDYFKKYPEVQENLDKTHTCPPCPAPEAAGAPSVFLFPPKPKDTLMISRTPEVTCVVVDVSHEDPEVKFNWYVDGVEVHNAKTKPREEQQNSTYRVVSVLTVLHQDWLNGKEYKCKVSNKALKAPIEKTISKAKGQPREPQVYTLPPSRDELTKNQVSLWCLVKGFYPSDIAVEWESNGQPENNYKTTPPVLDSDGSFFLYSKLTVDKSRWQQGNVFSCSVMHEALHNHYTQKSLSLSPG
chain 2: B1 chain 2
B4: FP175 (Fc fusion)
chain 1: B1 chain 1 with M208L, N214S, T302S
chain 2: B1 chain 2 with M208L, N214S
B5: FP174 (Fc fusion)
chain 1: B1 chain 1 with T302S
chain 2: B1 chain 2
B6: FP183 (Fc fusion)
chain 1: DKTHTCPPCPAPEAAGAPSVFLFPPKPKDTLMISRTPEVTCVVVDVSHEDPEVKFNWYVDGVEVHNAKTKPREEQQNSTYRVVSVLTVLHQDWLNGKEYKCKVSNKALKAPIEKTISKAKGQPREPQVYTLPPSRDELTKNQVSLWCLVKGFYPSDIAVEWESNGQPENNYKTTPPVLDSDGSFFLYSKLTVDKSRWQQGNVFSCSVMHEALHNHYTQKSLSLSPGAEEEKAEEEKAEEEKTALGRRKAEDRIKETLWADGVKIDEKDFEHIKSSHEDYFAVEYGKGSGYYDVNKKMDSEDSALCVGAVVTNMFHWWVDQNRENIEKFKKQDPENNGVMKFEGVKEATVDELNEFYRDNRDNYADQSRFFDLIKKHFGNKALNPEELFELYFNGFYYGSSHRYIEDNEPAQNNLFSKVLENNKLLNPERSYGIDGFSNNVINALKSHKVLGLVYTTPLRYRHIISMWGADIDQDGKVKAIYVTDSDDREITFNDNSKRRIGMIRYDVLVDDNGNIRFTGKGATHKEEGAIYAGLYSLSRGDEVWEDYFKKYPEVQENL
chain 2: B1 chain 2
B7: FP178 (Fc fusion)
chain: B3 chain 1 with W463T
B8: FP143 (Fc fusion)
chain: DKTHTCPPCPAPEAAGAPSVFLFPPKPKDTLMISRTPEVTCVVVDVSHEDPEVKFNWYVDGVEVHNAKTKPREEQQNSTYRVVSVLTVLHQDWLNGKEYKCKVSNKALKAPIEKTISKAKGQPREPQVYTLPPSRDELTKNQVSLTCLVKGFYPSDIAVEWESNGQPENNYKTTPPVLDSDGSFFLYSKLTVDKSRWQQGNVFSCSVLHEALHSHYTQKSLSLSPGGGGSGGGGSGGGGSTALGRRKAEDRIKETLWADGVKIDEKDFEHIKSSHEDYFAVEYGKGSGYYDVNKKMDSEDTALCVGAVVTNMFHWWVDQNRENIEKFKKQDPENNGVMKFEGVKEATVDELNEFYRDNRDNYADQSRFFDLIKKHFGNKALNPEELFELYFNGFYYGSSHRYIEDNEPAQNNLFSKVLENNKLLNPERSYGIDGFSNNVINALKSHKVLGLVYTTPLRYRHIISMWGADIDQDGKVKAIYVTDSDDREITFNDNSKRRIGMIRYDVLVDDNGNIRFTGKGATHKEEGAIYAGLYSLSRGDEVWEDYFKKYPEVQENL
B9: FP160 (Fc fusion)
chain: B8 chain with L208M, S214N, I432R, D510K, E525N, E541K, E544K
B10: FP149 (Fc fusion)
chain: B8 chain with L208M, S214N, D510K
B11: FP147 (Fc fusion)
chain: B8 chain with L208M, S214N, H400Q, R458E
B12: FP164 (Fc fusion)
chain: B8 chain with L208M, S214N, H375D
B13: FP144 (Fc fusion)
chain: B8 chain with L89D, Q91H, L208M
B14: FP150 (Fc fusion)
chain: B8 chain with L208M, S214N, N411G
B15: FP159 (Fc fusion)
chain: B8 chain with L208M, S214N, D510K, E525N
B16: FP165 (Fc fusion)
chain 1: B8 chain with T146W
chain 2: B1 chain 2 with M208L, N214S
B17: FP163 (Fc fusion)
chain: B8 chain with L208M, S214N, N511E
B18: FP170 (Fc fusion)
chain 1: B8 chain with T146W, L208M, S214N, T301S
chain 2: B1 chain 2
B19: FP158 (Fc fusion)
chain: B8 chain with L208M, S214N, E541K, E544K
B20: FP146 (Fc fusion)
chain: B8 chain with L208M, S214N, K374S, K496A
B21: FP145 (Fc fusion)
chain: B8 chain with L208M, S214N, T301S
B22: FP171 (Fc fusion)
chain 1: B8 chain with T146W, T301S
chain 2: B1 chain 2 with M208L, N214S

Biological target: Human IgE antibody (human)
Test: cell-based or functional assay

Binder | EC50 MSD IgE | EC50 CE-SDS IgE
B1 | 0.721 nM | –
B2 | 0.637 nM | 17.6 nM
B3 | 0.424 nM | 6.64 nM
B4 | 1.88 nM | 179 nM
B5 | 0.511 nM | 12.2 nM
B6 | 0.548 nM | 7.63 nM
B7 | 0.317 nM | 2.61 nM
B8 | 1.63 nM | 0.035 nM
B9 | – | 4.04 nM
B10 | 0.708 nM | 0.19 nM
B11 | – | 3.1 nM
B12 | – | 17.4 nM
B13 | – | 0.66 nM
B14 | 2.2 nM | 1.15 nM
B15 | – | 2.45 nM
B16 | 0.822 nM | 29.3 nM
B17 | – | 30.5 nM
B18 | 1.02 nM | 14.6 nM
B19 | – | 0.2 nM
B20 | – | 1.58 nM
B21 | 0.654 nM | 1.45 nM
B22 | 1.35 nM | 17.8 nM
